Our source for the formation of RFC values is PMC9953321.

A value given as a limit tells only on which side of the number the result lay.

This test deals with eRF1 (not stated (S. cerevisiae or human protein prepared)) (UniProt P12385).
Sequence of UniProt P12385 (P12385 whole entry): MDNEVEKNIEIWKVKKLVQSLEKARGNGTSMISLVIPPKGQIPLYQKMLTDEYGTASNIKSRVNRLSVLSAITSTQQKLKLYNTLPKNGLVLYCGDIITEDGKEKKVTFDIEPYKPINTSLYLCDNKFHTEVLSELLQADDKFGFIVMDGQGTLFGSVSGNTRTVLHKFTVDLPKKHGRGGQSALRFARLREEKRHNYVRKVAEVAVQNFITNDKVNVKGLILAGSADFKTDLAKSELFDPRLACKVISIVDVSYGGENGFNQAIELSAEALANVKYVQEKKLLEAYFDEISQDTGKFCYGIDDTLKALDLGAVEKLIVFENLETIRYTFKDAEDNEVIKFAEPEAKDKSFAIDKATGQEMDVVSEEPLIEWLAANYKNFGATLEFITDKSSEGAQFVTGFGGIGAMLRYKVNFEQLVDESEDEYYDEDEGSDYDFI

Sequence of eRF3 (P05453 whole entry): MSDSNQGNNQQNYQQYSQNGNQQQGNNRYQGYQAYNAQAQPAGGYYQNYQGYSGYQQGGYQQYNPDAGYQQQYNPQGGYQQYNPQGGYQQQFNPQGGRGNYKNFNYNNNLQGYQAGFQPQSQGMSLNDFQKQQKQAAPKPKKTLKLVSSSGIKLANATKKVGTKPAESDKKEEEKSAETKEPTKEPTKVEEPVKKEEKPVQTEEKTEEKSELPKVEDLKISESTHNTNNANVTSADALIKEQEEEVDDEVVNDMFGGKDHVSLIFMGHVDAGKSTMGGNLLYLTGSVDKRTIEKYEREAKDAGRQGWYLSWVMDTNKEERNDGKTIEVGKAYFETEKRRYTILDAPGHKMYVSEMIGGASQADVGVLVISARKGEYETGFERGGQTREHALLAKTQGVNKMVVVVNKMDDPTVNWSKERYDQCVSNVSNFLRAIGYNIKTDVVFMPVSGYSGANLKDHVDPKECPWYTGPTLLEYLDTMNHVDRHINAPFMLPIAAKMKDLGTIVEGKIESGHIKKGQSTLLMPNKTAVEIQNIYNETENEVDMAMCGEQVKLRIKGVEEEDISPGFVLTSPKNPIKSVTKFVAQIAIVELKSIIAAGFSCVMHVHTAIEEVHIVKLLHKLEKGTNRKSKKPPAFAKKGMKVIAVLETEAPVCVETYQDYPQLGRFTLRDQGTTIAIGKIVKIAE

Turning to “eRF3 (from UniProt P05453 1-685) (natural protein)”, the formation of RFC at constant 0.8 µM eRF3 with 0.01 to 0.4 µM eRF1 ('early experiments' of the termination assay; how it was determined is not told) is > 90%.
